From patent US20150322128A1 (Sanofi, published 2015)
Like-named read-outs stand apart in the source and are kept apart here. Numbered stars: 1 amine (or outer) side, 2 acyl side, 3 side chain; on linkers, the order of the positions; unused ones are H or OH. Square brackets hold non-standard residues; d marks the D form. Side chains are listed from the residue outwards. Ends that are not written are not given here. * marks the point of attachment. γGlu = O=C(O)[C@H](CCC(=O)[*:2])N[*:1]; Palmitoyl = CCCCCCCCCCCCCCCC(=O)*; Aib = CC(C)(N)C(=O)O

T1: human GIP receptor (human, UniProt P48546 22-466)
T1 sequence (looked up): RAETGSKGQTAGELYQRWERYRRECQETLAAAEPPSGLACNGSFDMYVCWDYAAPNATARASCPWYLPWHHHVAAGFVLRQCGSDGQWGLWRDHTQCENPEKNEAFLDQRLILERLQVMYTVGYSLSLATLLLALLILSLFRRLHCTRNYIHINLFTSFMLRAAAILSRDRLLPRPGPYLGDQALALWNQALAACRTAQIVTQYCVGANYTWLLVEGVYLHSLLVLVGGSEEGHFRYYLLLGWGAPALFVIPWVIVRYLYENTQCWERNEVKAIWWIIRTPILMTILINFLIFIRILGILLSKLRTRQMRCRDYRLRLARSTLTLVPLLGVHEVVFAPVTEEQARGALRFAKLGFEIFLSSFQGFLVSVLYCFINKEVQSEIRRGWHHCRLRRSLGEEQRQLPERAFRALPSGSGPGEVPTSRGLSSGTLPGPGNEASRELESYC


How the values were obtained:
Test in all cases: cell-based or functional assay
human glucagon receptor [1] = target: T2, human glucagon receptor (human, UniProt P47871 26-477)
human GIP receptor [2] = target: T1, human GIP receptor
human GLP-1 receptor [3] = target: T3, human GLP-1 receptor (human, UniProt P43220 24-463)
human glucagon receptor [4] = target: T2, human glucagon receptor; remark: listed apart in the source
human GIP receptor [5] = target: T1, human GIP receptor; remark: listed apart in the source
human GLP-1 receptor [6] = target: T3, human GLP-1 receptor; remark: listed apart in the source

T2 sequence (P47871 26-477): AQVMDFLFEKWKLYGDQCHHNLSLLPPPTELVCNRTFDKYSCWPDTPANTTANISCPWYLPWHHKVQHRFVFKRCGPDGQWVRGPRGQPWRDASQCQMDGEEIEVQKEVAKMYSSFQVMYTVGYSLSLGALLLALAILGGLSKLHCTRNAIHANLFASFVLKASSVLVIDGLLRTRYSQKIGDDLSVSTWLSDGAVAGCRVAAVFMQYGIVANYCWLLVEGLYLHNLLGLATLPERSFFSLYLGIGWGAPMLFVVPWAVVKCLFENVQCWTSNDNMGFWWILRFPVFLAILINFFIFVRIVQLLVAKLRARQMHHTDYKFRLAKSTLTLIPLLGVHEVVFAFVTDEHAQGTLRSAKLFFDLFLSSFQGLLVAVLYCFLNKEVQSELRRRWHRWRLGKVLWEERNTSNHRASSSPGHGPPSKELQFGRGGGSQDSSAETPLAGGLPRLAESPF

Binder	EC50 hGlucagon-R (human glucagon receptor [1]) [pM]	EC50 hGIP-R (human GIP receptor [2]) [pM]	EC50 hGLP-1R (human GLP-1 receptor [3]) [pM]	EC50 hGlucagon-R (human glucagon receptor [4]) [pM]	EC50 hGIP-1 (human GIP receptor [5]) [pM]	EC50 hGLP-1R (human GLP-1 receptor [6]) [pM]
H[dS]QGTFTSDLSKQK([γGlu-γGlu-Palmitoyl])EEEAARLFIEWL[Aib]AGGPSSGAPPPS-NH2 (N-terminus assumed; SMILES CCCCCCCCCCCCCCCC(=O)N[C@@H](CCC(=O)N[C@@H](CCC(=O)NCCCC[C@H](NC(=O)[C@H](CCC(N)=O)NC(=O)[C@H](CCCCN)NC(=O)[C@H](CO)NC(=O)[C@H](CC(C)C)NC(=O)[C@H](CC(=O)O)NC(=O)[C@H](CO)NC(=O)[C@@H](NC(=O)[C@H](Cc1ccccc1)NC(=O)[C@@H](NC(=O)CNC(=O)[C@H](CCC(N)=O)NC(=O)[C@@H](CO)NC(=O)[C@@H](N)Cc1c[nH]cn1)[C@@H](C)O)[C@@H](C)O)C(=O)N[C@@H](CCC(=O)O)C(=O)N[C@@H](CCC(=O)O)C(=O)N[C@@H](CCC(=O)O)C(=O)N[C@@H](C)C(=O)N[C@@H](C)C(=O)N[C@@H](CCCNC(=N)N)C(=O)N[C@@H](CC(C)C)C(=O)N[C@@H](Cc1ccccc1)C(=O)N[C@H](C(=O)N[C@@H](CCC(=O)O)C(=O)N[C@@H](Cc1c[nH]c2ccccc12)C(=O)N[C@@H](CC(C)C)C(=O)NC(C)(C)C(=O)N[C@@H](C)C(=O)NCC(=O)NCC(=O)N1CCC[C@H]1C(=O)N[C@@H](CO)C(=O)N[C@@H](CO)C(=O)NCC(=O)N[C@@H](C)C(=O)N1CCC[C@H]1C(=O)N1CCC[C@H]1C(=O)N1CCC[C@H]1C(=O)N[C@@H](CO)C(N)=O)[C@@H](C)CC)C(=O)O)C(=O)O) [SEQ ID NO: 16]	35.4	7780	1.8	35.4	7780	1.8
H[dS]HGTFTSDLSKQK([γGlu-γGlu-Palmitoyl])EEEAARLFIEWL[Aib]K[dA]GPSSGAPPPS-NH2 (N-terminus assumed; SMILES CCCCCCCCCCCCCCCC(=O)N[C@@H](CCC(=O)N[C@@H](CCC(=O)NCCCC[C@H](NC(=O)[C@H](CCC(N)=O)NC(=O)[C@H](CCCCN)NC(=O)[C@H](CO)NC(=O)[C@H](CC(C)C)NC(=O)[C@H](CC(=O)O)NC(=O)[C@H](CO)NC(=O)[C@@H](NC(=O)[C@H](Cc1ccccc1)NC(=O)[C@@H](NC(=O)CNC(=O)[C@H](Cc1c[nH]cn1)NC(=O)[C@@H](CO)NC(=O)[C@@H](N)Cc1c[nH]cn1)[C@@H](C)O)[C@@H](C)O)C(=O)N[C@@H](CCC(=O)O)C(=O)N[C@@H](CCC(=O)O)C(=O)N[C@@H](CCC(=O)O)C(=O)N[C@@H](C)C(=O)N[C@@H](C)C(=O)N[C@@H](CCCNC(=N)N)C(=O)N[C@@H](CC(C)C)C(=O)N[C@@H](Cc1ccccc1)C(=O)N[C@H](C(=O)N[C@@H](CCC(=O)O)C(=O)N[C@@H](Cc1c[nH]c2ccccc12)C(=O)N[C@@H](CC(C)C)C(=O)NC(C)(C)C(=O)N[C@@H](CCCCN)C(=O)N[C@H](C)C(=O)NCC(=O)N1CCC[C@H]1C(=O)N[C@@H](CO)C(=O)N[C@@H](CO)C(=O)NCC(=O)N[C@@H](C)C(=O)N1CCC[C@H]1C(=O)N1CCC[C@H]1C(=O)N1CCC[C@H]1C(=O)N[C@@H](CO)C(N)=O)[C@@H](C)CC)C(=O)O)C(=O)O) [SEQ ID NO: 27]	55.4	3220	2.1			
H-HSQGTFTSDLSKQK([γGlu-γGlu-Palmitoyl])DEEAARLFIEWLKAGGPSSGAPPPS-NH2 [SEQ ID NO: 33]				1.4	70.8	1
H[dS]QGTFTSDLSKQK([γGlu-γGlu-Palmitoyl])EEEAARLFIEWLKAGGPSSGAPPPS-NH2 (N-terminus assumed; SMILES CCCCCCCCCCCCCCCC(=O)N[C@@H](CCC(=O)N[C@@H](CCC(=O)NCCCC[C@H](NC(=O)[C@H](CCC(N)=O)NC(=O)[C@H](CCCCN)NC(=O)[C@H](CO)NC(=O)[C@H](CC(C)C)NC(=O)[C@H](CC(=O)O)NC(=O)[C@H](CO)NC(=O)[C@@H](NC(=O)[C@H](Cc1ccccc1)NC(=O)[C@@H](NC(=O)CNC(=O)[C@H](CCC(N)=O)NC(=O)[C@@H](CO)NC(=O)[C@@H](N)Cc1c[nH]cn1)[C@@H](C)O)[C@@H](C)O)C(=O)N[C@@H](CCC(=O)O)C(=O)N[C@@H](CCC(=O)O)C(=O)N[C@@H](CCC(=O)O)C(=O)N[C@@H](C)C(=O)N[C@@H](C)C(=O)N[C@@H](CCCNC(=N)N)C(=O)N[C@@H](CC(C)C)C(=O)N[C@@H](Cc1ccccc1)C(=O)N[C@H](C(=O)N[C@@H](CCC(=O)O)C(=O)N[C@@H](Cc1c[nH]c2ccccc12)C(=O)N[C@@H](CC(C)C)C(=O)N[C@@H](CCCCN)C(=O)N[C@@H](C)C(=O)NCC(=O)NCC(=O)N1CCC[C@H]1C(=O)N[C@@H](CO)C(=O)N[C@@H](CO)C(=O)NCC(=O)N[C@@H](C)C(=O)N1CCC[C@H]1C(=O)N1CCC[C@H]1C(=O)N1CCC[C@H]1C(=O)N[C@@H](CO)C(N)=O)[C@@H](C)CC)C(=O)O)C(=O)O) [SEQ ID NO: 31]				7.4	345	1.3
H[dS]HGTFTSDLSKQK([γGlu-γGlu-Palmitoyl])DEEAARLFIEWL[Aib]AGGPSSGAPPPS-NH2 [SEQ ID NO: 7]	9	908	1.5	9	908	1.5
HXHGTFTSDLSKQKDEEAARLFIEWLKAGGPSSGAPPPS (D-Ser at 2; Lys 14 side chain K(γE-γE-x53) = (S)-4-Carboxy-4-((S)-4-carboxy-4-hexadecanoylamino-butyrylamino)-butyryl-; C-terminal amide) [SEQ ID NO: 29]				2.6	112	0.9
HXHGTFTSDLSKQKEEEAARLFIEWLKAGGPSSGAPPPS (D-Ser at 2; Lys 14 side chain K(γE-γE-x53) = (S)-4-Carboxy-4-((S)-4-carboxy-4-hexadecanoylamino-butyrylamino)-butyryl-; C-terminal amide) [SEQ ID NO: 30]				5.1	77.8	0.8
HSQGTFTSDLSKQK([γGlu-γGlu-Palmitoyl])DEEAARLFIEWL[Aib]AGGPSSGAPPPS-NH2 (N-terminus assumed; SMILES CCCCCCCCCCCCCCCC(=O)N[C@@H](CCC(=O)N[C@@H](CCC(=O)NCCCC[C@H](NC(=O)[C@H](CCC(N)=O)NC(=O)[C@H](CCCCN)NC(=O)[C@H](CO)NC(=O)[C@H](CC(C)C)NC(=O)[C@H](CC(=O)O)NC(=O)[C@H](CO)NC(=O)[C@@H](NC(=O)[C@H](Cc1ccccc1)NC(=O)[C@@H](NC(=O)CNC(=O)[C@H](CCC(N)=O)NC(=O)[C@H](CO)NC(=O)[C@@H](N)Cc1c[nH]cn1)[C@@H](C)O)[C@@H](C)O)C(=O)N[C@@H](CC(=O)O)C(=O)N[C@@H](CCC(=O)O)C(=O)N[C@@H](CCC(=O)O)C(=O)N[C@@H](C)C(=O)N[C@@H](C)C(=O)N[C@@H](CCCNC(=N)N)C(=O)N[C@@H](CC(C)C)C(=O)N[C@@H](Cc1ccccc1)C(=O)N[C@H](C(=O)N[C@@H](CCC(=O)O)C(=O)N[C@@H](Cc1c[nH]c2ccccc12)C(=O)N[C@@H](CC(C)C)C(=O)NC(C)(C)C(=O)N[C@@H](C)C(=O)NCC(=O)NCC(=O)N1CCC[C@H]1C(=O)N[C@@H](CO)C(=O)N[C@@H](CO)C(=O)NCC(=O)N[C@@H](C)C(=O)N1CCC[C@H]1C(=O)N1CCC[C@H]1C(=O)N1CCC[C@H]1C(=O)N[C@@H](CO)C(N)=O)[C@@H](C)CC)C(=O)O)C(=O)O) [SEQ ID NO: 11]	5.1	560	1.2	5.1	560	1.2
H[dS]HGTFTSDLSKQK([γGlu-γGlu-Palmitoyl])EEEAARLFIEWL[Aib]AGGPSSGAPPPS-NH2 (N-terminus assumed; SMILES CCCCCCCCCCCCCCCC(=O)N[C@@H](CCC(=O)N[C@@H](CCC(=O)NCCCC[C@H](NC(=O)[C@H](CCC(N)=O)NC(=O)[C@H](CCCCN)NC(=O)[C@H](CO)NC(=O)[C@H](CC(C)C)NC(=O)[C@H](CC(=O)O)NC(=O)[C@H](CO)NC(=O)[C@@H](NC(=O)[C@H](Cc1ccccc1)NC(=O)[C@@H](NC(=O)CNC(=O)[C@H](Cc1c[nH]cn1)NC(=O)[C@@H](CO)NC(=O)[C@@H](N)Cc1c[nH]cn1)[C@@H](C)O)[C@@H](C)O)C(=O)N[C@@H](CCC(=O)O)C(=O)N[C@@H](CCC(=O)O)C(=O)N[C@@H](CCC(=O)O)C(=O)N[C@@H](C)C(=O)N[C@@H](C)C(=O)N[C@@H](CCCNC(=N)N)C(=O)N[C@@H](CC(C)C)C(=O)N[C@@H](Cc1ccccc1)C(=O)N[C@H](C(=O)N[C@@H](CCC(=O)O)C(=O)N[C@@H](Cc1c[nH]c2ccccc12)C(=O)N[C@@H](CC(C)C)C(=O)NC(C)(C)C(=O)N[C@@H](C)C(=O)NCC(=O)NCC(=O)N1CCC[C@H]1C(=O)N[C@@H](CO)C(=O)N[C@@H](CO)C(=O)NCC(=O)N[C@@H](C)C(=O)N1CCC[C@H]1C(=O)N1CCC[C@H]1C(=O)N1CCC[C@H]1C(=O)N[C@@H](CO)C(N)=O)[C@@H](C)CC)C(=O)O)C(=O)O) [SEQ ID NO: 6]	17.7	1540	2.6	17.7	1540	2.6
